The target in the experiment is Plu4264 from Photorhabdus luminescens subsp. laumondii TTO1 (Photorhabdus luminescens subsp. laumondii TTO1). As to the kind of experiment: crystal structure.

In turn, “Plu4264 from Photorhabdus luminescens subsp. laumondii TTO1 (natural protein)” yielded a stoichiometry N of 2.

The record behind these values is paper PMC4300268.
